In patent US20200115434A1 (EUREKA THERAPEUTICS, published 2020):

How the values were obtained:
[1] = molecular target: T1, PE-labeled AFP158/HLA-A*02:01 tetramer (human, biotinylated via the BSP peptide linked to the C-terminal end of the extracellular domain); assay: flow cytometry, PE-labelled tetramer on transduced Jurkat cells
T1 construct: also called AFP158 tetramer; AFP158/HLA-A*02:01 tetramers; not shown: BSP peptide (BirA biotinylation site) at the C-terminus

[2] = molecular target: T1, PE-labeled AFP158/HLA-A*02:01 tetramer; assay: flow cytometry, PE-labelled tetramer on transduced J.RT3-T3.5 cells

Row | Binder | binding result [1] | binding result [2]
1 | anti-AFP158/HLA-A*02:01-abTCR-5 (other, the junction between chain and tag is not described) chain 1: QSVLTQPASVSGSPGQSITISCTGTSSDVGGYNYVSWYQQHPGKAPKLMIYDVNNRPSEVSNRFSGSKSGNTASLTISGLQAEDEADYYCSSYTTGSRAVFGGGTKLTVLGQPKANPTVTLFPPSSEELQANKATLVCLISDFYPGAVTVAWKADGSPVKAGVETTKPSKQSNNKYAASSYLSLTPEQWKSHRSYSCQVTHEGSTVEKTVAPTECSDHVKPKETENTKQPSKSCHKPKAIVHTEKVNMMSLTVLGLRMLFAKTVAVNFLLTAKLFFLYPYDVPDYA chain 2: EVQLVQSGAEVKKPGESLTISCKASGYSFPNYWITWVRQMSGGGLEWMGRIDPGDSYTTYNPSFQGHVTISIDKSTNTAYLHWNSLKASDTAMYYCARYYVSLVDIWGQGTLVTVSSASTKGPSVFPLAPSSKSTSGGTAALGCLVKDYFPEPVTVSWNSGALTSGVHTFPAVLQSSGLYSLSSVVTVPSSSLGTQTYICNVNHKPSNTKVDKRVEPKSCMDPKDNCSKDANDTLLLQLTNTSAYYMYLLLLLKSVVYFAIITCCLLRRTAFCCNGEKSDYKDHDGDYKDHDIDYKDDDDK | binds | 
2 | anti-AFP158/HLA-A*02:01-abTCR-6 (other, the junction between chain and tag is not described) chain 1: EVQLVQSGAEVKKPGESLTISCKASGYSFPNYWITWVRQMSGGGLEWMGRIDPGDSYTTYNPSFQGHVTISIDKSTNTAYLHWNSLKASDTAMYYCARYYVSLVDIWGQGTLVTVSSASTKGPSVFPLAPSSKSTSGGTAALGCLVKDYFPEPVTVSWNSGALTSGVHTFPAVLQSSGLYSLSSVVTVPSSSLGTQTYICNVNHKPSNTKVDKRVEPKSCDHVKPKETENTKQPSKSCHKPKAIVHTEKVNMMSLTVLGLRMLFAKTVAVNFLLTAKLFFLYPYDVPDYA chain 2: QSVLTQPASVSGSPGQSITISCTGTSSDVGGYNYVSWYQQHPGKAPKLMIYDVNNRPSEVSNRFSGSKSGNTASLTISGLQAEDEADYYCSSYTTGSRAVFGGGTKLTVLGQPKANPTVTLFPPSSEELQANKATLVCLISDFYPGAVTVAWKADGSPVKAGVETTKPSKQSNNKYAASSYLSLTPEQWKSHRSYSCQVTHEGSTVEKTVAPTECSMDPKDNCSKDANDTLLLQLTNTSAYYMYLLLLLKSVVYFAIITCCLLRRTAFCCNGEKSDYKDHDGDYKDHDIDYKDDDDK | binds | 

Now from value to binder:

Row | binding result [1] | binding result [2] | Binder
3 | binds |  | anti-AFP158/HLA-A*02:01-abTCR-4 (other, the junction between chain and tag is not described) chain 1: QSVLTQPASVSGSPGQSITISCTGTSSDVGGYNYVSWYQQHPGKAPKLMIYDVNNRPSEVSNRFSGSKSGNTASLTISGLQAEDEADYYCSSYTTGSRAVFGGGTKLTVLGQPKANPTVTLFPPSSEELQANKATLVCLISDFYPGAVTVAWKADGSPVKAGVETTKPSKQSNNKYAASSYLSLTPEQWKSHRSYSCQVTHEGSTVEKTVAPTECSESSCDVKLVEKSFETDTNLNFQNLSVIGFRILLLKVAGFNLLMTLRLWSSDYKDHDGDYKDHDIDYKDDDDK chain 2: EVQLVQSGAEVKKPGESLTISCKASGYSFPNYWITWVRQMSGGGLEWMGRIDPGDSYTTYNPSFQGHVTISIDKSTNTAYLHWNSLKASDTAMYYCARYYVSLVDIWGQGTLVTVSSASTKGPSVFPLAPSSKSTSGGTAALGCLVKDYFPEPVTVSWNSGALTSGVHTFPAVLQSSGLYSLSSVVTVPSSSLGTQTYICNVNHKPSNTKVDKRVEPKSCADCGFTSVSYQQGVLSATILYEILLGKATLYAVLVSALVLMAMVKRKDFYPYDVPDYA
4 |  | binds | anti-AFP158/HLA-A*02:01-abTCR-3 (other, the junction between chain and tag is not described) chain 1: EVQLVQSGAEVKKPGESLTISCKASGYSFPNYWITWVRQMSGGGLEWMGRIDPGDSYTTYNPSFQGHVTISIDKSTNTAYLHWNSLKASDTAMYYCARYYVSLVDIWGQGTLVTVSSASTKGPSVFPLAPSSKSTSGGTAALGCLVKDYFPEPVTVSWNSGALTSGVHTFPAVLQSSGLYSLSSVVTVPSSSLGTQTYICNVNHKPSNTKVDKRVEPKSCESSCDVKLVEKSFETDTNLNFQNLSVIGFRILLLKVAGFNLLMTLRLWSSDYKDHDGDYKDHDIDYKDDDDK chain 2: QSVLTQPASVSGSPGQSITISCTGTSSDVGGYNYVSWYQQHPGKAPKLMIYDVNNRPSEVSNRFSGSKSGNTASLTISGLQAEDEADYYCSSYTTGSRAVFGGGTKLTVLGQPKANPTVTLFPPSSEELQANKATLVCLISDFYPGAVTVAWKADGSPVKAGVETTKPSKQSNNKYAASSYLSLTPEQWKSHRSYSCQVTHEGSTVEKTVAPTECSADCGFTSVSYQQGVLSATILYEILLGKATLYAVLVSALVLMAMVKRKDFYPYDVPDYA
